# Measurements published in patent US20230212549A1 (3B PHARMACEUTICALS, published 2023).
# “And” between values parts separate entries of the source, which are not always exact repeats. Equal entries are not always repeated. Numbered stars: 1 amine (or outer) side, 2 acyl side, 3 side chain; on linkers, the order of the positions; unused ones are H or OH. Bridge positions count the residues as written; N and C are the ends. Square brackets hold non-standard residues; d marks the D form. * marks the point of attachment. DOTA = O=C(O)CN1CCN(CC(=O)O)CCN(CC(=O)*)CCN(CC(=O)O)CC1; Oic = O=C(O)[C@@H]1C[C@@H]2CCCC[C@@H]2N1; mXylylene = c1cc(C[*:1])cc(C[*:2])c1; NMeF = CN[C@@H](Cc1ccccc1)C(=O)O; Nle = CCCC[C@H](N)C(=O)O; Phb = not defined here; AEEA = NCCOCCOCC(=O)O; Inp = O=C(O)C1CCNCC1; Ahx = NCCCCCC(=O)O; Mpa = O=C(O)CCS
# B1: Ac-Met-[Cys(3MeBn)-Pro-Pro-Thr-Glu-phe-Cys]-Asp-His-Phe-Arg-Asp-NH2 (peptide)
# peptide: Ac-MCPPTE[dF]CDHFRD-NH2
# modifications: linker 2-8 via mXylylene
# SMILES: CSCC[C@H](NC(C)=O)C(=O)N[C@H]1CSCc2cccc(c2)CSC[C@@H](C(=O)N[C@@H](CC(=O)O)C(=O)N[C@@H](Cc2c[nH]cn2)C(=O)N[C@@H](Cc2ccccc2)C(=O)N[C@@H](CCCNC(=N)N)C(=O)N[C@@H](CC(=O)O)C(N)=O)NC(=O)[C@@H](Cc2ccccc2)NC(=O)[C@H](CCC(=O)O)NC(=O)[C@H]([C@@H](C)O)NC(=O)[C@@H]2CCCN2C(=O)[C@@H]2CCCN2C1=O
# notes: also called 3BP-3180
# B2: DOTA-Nle-[Cys(3MeBn)-Pro-Pro-Thr-Glu-Phe-Cys]-Asp-His-Phe-Arg-Asp-NH2 (peptide)
# peptide: {DOTA}-[Nle]CPPTEFCDHFRD-NH2
# modifications: linker 2-8 via mXylylene
# SMILES: CCCC[C@H](NC(=O)CN1CCN(CC(=O)O)CCN(CC(=O)O)CCN(CC(=O)O)CC1)C(=O)N[C@H]1CSCc2cccc(c2)CSC[C@@H](C(=O)N[C@@H](CC(=O)O)C(=O)N[C@@H](Cc2c[nH]cn2)C(=O)N[C@@H](Cc2ccccc2)C(=O)N[C@@H](CCCNC(=N)N)C(=O)N[C@@H](CC(=O)O)C(N)=O)NC(=O)[C@H](Cc2ccccc2)NC(=O)[C@H](CCC(=O)O)NC(=O)[C@H]([C@@H](C)O)NC(=O)[C@@H]2CCCN2C(=O)[C@@H]2CCCN2C1=O
# notes: also called 3BP-3088
# B3: [3MeBn-Spa-Pro-Pro-Thr-Gln-Phe-Cys]-Asp-NH2 (peptide)
# peptide: [Mpa]PPTQFCD-NH2
# modifications: linker 1-7 via mXylylene
# SMILES: C[C@@H](O)[C@@H]1NC(=O)[C@@H]2CCCN2C(=O)[C@@H]2CCCN2C(=O)CCSCc2cccc(c2)CSC[C@@H](C(=O)N[C@@H](CC(=O)O)C(N)=O)NC(=O)[C@H](Cc2ccccc2)NC(=O)[C@H](CCC(N)=O)NC1=O
# notes: also called 3BP-3419
# B4: Ac-Met-[Cys(3MeBn)-Pro-Pro-Thr-Glu-Phe-Cys]-Asp-His-Phe-Ala-Asp-NH2 (peptide)
# peptide: Ac-MCPPTEFCDHFAD-NH2
# modifications: linker 2-8 via mXylylene
# SMILES: CSCC[C@H](NC(C)=O)C(=O)N[C@H]1CSCc2cccc(c2)CSC[C@@H](C(=O)N[C@@H](CC(=O)O)C(=O)N[C@@H](Cc2c[nH]cn2)C(=O)N[C@@H](Cc2ccccc2)C(=O)N[C@@H](C)C(=O)N[C@@H](CC(=O)O)C(N)=O)NC(=O)[C@H](Cc2ccccc2)NC(=O)[C@H](CCC(=O)O)NC(=O)[C@H]([C@@H](C)O)NC(=O)[C@@H]2CCCN2C(=O)[C@@H]2CCCN2C1=O
# notes: also called 3BP-3197
# B5: Ac-Met-[Cys(3MeBn)-ala-Pro-Thr-Glu-Phe-Cys]-Asp-His-Phe-Arg-Asp-NH2 (peptide)
# peptide: Ac-MC[dA]PTEFCDHFRD-NH2
# modifications: linker 2-8 via mXylylene
# SMILES: CSCC[C@H](NC(C)=O)C(=O)N[C@H]1CSCc2cccc(c2)CSC[C@@H](C(=O)N[C@@H](CC(=O)O)C(=O)N[C@@H](Cc2c[nH]cn2)C(=O)N[C@@H](Cc2ccccc2)C(=O)N[C@@H](CCCNC(=N)N)C(=O)N[C@@H](CC(=O)O)C(N)=O)NC(=O)[C@H](Cc2ccccc2)NC(=O)[C@H](CCC(=O)O)NC(=O)[C@H]([C@@H](C)O)NC(=O)[C@@H]2CCCN2C(=O)[C@@H](C)NC1=O
# notes: also called 3BP-3215
# B6: Ac-Met-[Cys(3MeBn)-Oic-Pro-Thr-Glu-Phe-Cys]-Asp-His-Phe-Arg-Asp-NH2 (peptide)
# peptide: Ac-MC[Oic]PTEFCDHFRD-NH2
# modifications: linker 2-8 via mXylylene
# SMILES: CSCC[C@H](NC(C)=O)C(=O)N[C@H]1CSCc2cccc(c2)CSC[C@@H](C(=O)N[C@@H](CC(=O)O)C(=O)N[C@@H](Cc2c[nH]cn2)C(=O)N[C@@H](Cc2ccccc2)C(=O)N[C@@H](CCCNC(=N)N)C(=O)N[C@@H](CC(=O)O)C(N)=O)NC(=O)[C@H](Cc2ccccc2)NC(=O)[C@H](CCC(=O)O)NC(=O)[C@H]([C@@H](C)O)NC(=O)[C@@H]2CCCN2C(=O)[C@@H]2C[C@@H]3CCCC[C@@H]3N2C1=O
# notes: also called 3BP-3216
# B7: Ac-Met-[Cys(3MeBn)-Pro-Pro-Thr-Glu-Phe-Cys]-Asp-His-Phe-NH2 (peptide)
# peptide: Ac-MCPPTEFCDHF-NH2
# modifications: linker 2-8 via mXylylene
# SMILES: CSCC[C@H](NC(C)=O)C(=O)N[C@H]1CSCc2cccc(c2)CSC[C@@H](C(=O)N[C@@H](CC(=O)O)C(=O)N[C@@H](Cc2c[nH]cn2)C(=O)N[C@@H](Cc2ccccc2)C(N)=O)NC(=O)[C@H](Cc2ccccc2)NC(=O)[C@H](CCC(=O)O)NC(=O)[C@H]([C@@H](C)O)NC(=O)[C@@H]2CCCN2C(=O)[C@@H]2CCCN2C1=O
# notes: also called 3BP-3199
# B8: DOTA-Ahx-[Cys(3MeBn)-Pro-Pro-Thr-Glu-Phe-Cys]-Asp-His-Nmf-Arg-Asp-NH2 (peptide)
# peptide: {DOTA}-[Ahx]CPPTEFCDH[NMeF]RD-NH2
# modifications: linker 2-8 via mXylylene
# SMILES: C[C@@H](O)[C@@H]1NC(=O)[C@@H]2CCCN2C(=O)[C@@H]2CCCN2C(=O)[C@@H](NC(=O)CCCCCNC(=O)CN2CCN(CC(=O)O)CCN(CC(=O)O)CCN(CC(=O)O)CC2)CSCc2cccc(c2)CSC[C@@H](C(=O)N[C@@H](CC(=O)O)C(=O)N[C@@H](Cc2c[nH]cn2)C(=O)N(C)[C@@H](Cc2ccccc2)C(=O)N[C@@H](CCCNC(=N)N)C(=O)N[C@@H](CC(=O)O)C(N)=O)NC(=O)[C@H](Cc2ccccc2)NC(=O)[C@H](CCC(=O)O)NC1=O
# notes: also called 3BP-3266
# B9: Ac-Met-[Cys(3MeBn)-pro-Pro-Thr-Glu-Phe-Cys]-Asp-His-Phe-Arg-Asp-NH2 (peptide)
# peptide: Ac-MC[dP]PTEFCDHFRD-NH2
# modifications: linker 2-8 via mXylylene
# SMILES: CSCC[C@H](NC(C)=O)C(=O)N[C@H]1CSCc2cccc(c2)CSC[C@@H](C(=O)N[C@@H](CC(=O)O)C(=O)N[C@@H](Cc2c[nH]cn2)C(=O)N[C@@H](Cc2ccccc2)C(=O)N[C@@H](CCCNC(=N)N)C(=O)N[C@@H](CC(=O)O)C(N)=O)NC(=O)[C@H](Cc2ccccc2)NC(=O)[C@H](CCC(=O)O)NC(=O)[C@H]([C@@H](C)O)NC(=O)[C@@H]2CCCN2C(=O)[C@H]2CCCN2C1=O
# notes: also called 3BP-3176
# B10: DOTA-O2Oc-[Cys(3MeBn)-Pro-Pro-Thr-Glu-Phe-Cys]-Asp-His-Nmf-Arg-Asp-NH2 (peptide)
# peptide: {DOTA}-[AEEA]CPPTEFCDH[NMeF]RD-NH2
# modifications: linker 2-8 via mXylylene
# SMILES: C[C@@H](O)[C@@H]1NC(=O)[C@@H]2CCCN2C(=O)[C@@H]2CCCN2C(=O)[C@@H](NC(=O)COCCOCCNC(=O)CN2CCN(CC(=O)O)CCN(CC(=O)O)CCN(CC(=O)O)CC2)CSCc2cccc(c2)CSC[C@@H](C(=O)N[C@@H](CC(=O)O)C(=O)N[C@@H](Cc2c[nH]cn2)C(=O)N(C)[C@@H](Cc2ccccc2)C(=O)N[C@@H](CCCNC(=N)N)C(=O)N[C@@H](CC(=O)O)C(N)=O)NC(=O)[C@H](Cc2ccccc2)NC(=O)[C@H](CCC(=O)O)NC1=O
# notes: also called 3BP-3267
# B11: Phb-[Cys(3MeBn)-Pro-Pro-Thr-Gln-Phe-Cys]-Asp-NH2 (peptide)
# peptide: Phb-CPPTQFCD-NH2
# modifications: linker 1-7 via mXylylene; reading uncertain; also: printed as Phb-[Cys(3MeBn)-Pro-Pro-Thr-Gln-Phe-Cys]-Asp-NH2
# notes: also called 3BP-3418
# B12: Ac-Met-[Cys(3MeBn)-Pro-Oic-Thr-Glu-Phe-Cys]-Asp-His-Phe-Arg-Asp-NH2 (peptide)
# peptide: Ac-MCP[Oic]TEFCDHFRD-NH2
# modifications: linker 2-8 via mXylylene
# SMILES: CSCC[C@H](NC(C)=O)C(=O)N[C@H]1CSCc2cccc(c2)CSC[C@@H](C(=O)N[C@@H](CC(=O)O)C(=O)N[C@@H](Cc2c[nH]cn2)C(=O)N[C@@H](Cc2ccccc2)C(=O)N[C@@H](CCCNC(=N)N)C(=O)N[C@@H](CC(=O)O)C(N)=O)NC(=O)[C@H](Cc2ccccc2)NC(=O)[C@H](CCC(=O)O)NC(=O)[C@H]([C@@H](C)O)NC(=O)[C@@H]2C[C@@H]3CCCC[C@@H]3N2C(=O)[C@@H]2CCCN2C1=O
# notes: also called 3BP-3217
# B13: DOTA-Inp-[Cys(3MeBn)-Pro-Pro-Thr-Glu-Phe-Cys]-Asp-His-Nmf-Arg-Asp-NH2 (peptide)
# peptide: {DOTA}-[Inp]CPPTEFCDH[NMeF]RD-NH2
# modifications: linker 2-8 via mXylylene
# SMILES: C[C@@H](O)[C@@H]1NC(=O)[C@@H]2CCCN2C(=O)[C@@H]2CCCN2C(=O)[C@@H](NC(=O)C2CCN(C(=O)CN3CCN(CC(=O)O)CCN(CC(=O)O)CCN(CC(=O)O)CC3)CC2)CSCc2cccc(c2)CSC[C@@H](C(=O)N[C@@H](CC(=O)O)C(=O)N[C@@H](Cc2c[nH]cn2)C(=O)N(C)[C@@H](Cc2ccccc2)C(=O)N[C@@H](CCCNC(=N)N)C(=O)N[C@@H](CC(=O)O)C(N)=O)NC(=O)[C@H](Cc2ccccc2)NC(=O)[C@H](CCC(=O)O)NC1=O
# notes: also called 3BP-3265
# B14: DOTA-[Cys(3MeBn)-Pro-Pro-Thr-Glu-Phe-Cys]-Asp-His-Phe-Arg-Asp-NH2 (peptide)
# peptide: {DOTA}-CPPTEFCDHFRD-NH2
# modifications: linker 1-7 via mXylylene
# SMILES: C[C@@H](O)[C@@H]1NC(=O)[C@@H]2CCCN2C(=O)[C@@H]2CCCN2C(=O)[C@@H](NC(=O)CN2CCN(CC(=O)O)CCN(CC(=O)O)CCN(CC(=O)O)CC2)CSCc2cccc(c2)CSC[C@@H](C(=O)N[C@@H](CC(=O)O)C(=O)N[C@@H](Cc2c[nH]cn2)C(=O)N[C@@H](Cc2ccccc2)C(=O)N[C@@H](CCCNC(=N)N)C(=O)N[C@@H](CC(=O)O)C(N)=O)NC(=O)[C@H](Cc2ccccc2)NC(=O)[C@H](CCC(=O)O)NC1=O
# notes: also called 3BP-3174
# B15: DOTA-Met-[Cys(3MeBn)-Pro-Pro-Thr-Glu-Phe-Cys]-Asp-His-Phe-Arg-Asp-NH2 (peptide)
# peptide: {DOTA}-MCPPTEFCDHFRD-NH2
# modifications: linker 2-8 via mXylylene
# SMILES: CSCC[C@H](NC(=O)CN1CCN(CC(=O)O)CCN(CC(=O)O)CCN(CC(=O)O)CC1)C(=O)N[C@H]1CSCc2cccc(c2)CSC[C@@H](C(=O)N[C@@H](CC(=O)O)C(=O)N[C@@H](Cc2c[nH]cn2)C(=O)N[C@@H](Cc2ccccc2)C(=O)N[C@@H](CCCNC(=N)N)C(=O)N[C@@H](CC(=O)O)C(N)=O)NC(=O)[C@H](Cc2ccccc2)NC(=O)[C@H](CCC(=O)O)NC(=O)[C@H]([C@@H](C)O)NC(=O)[C@@H]2CCCN2C(=O)[C@@H]2CCCN2C1=O
# Columns and labels:
# [1] = target: T1, fibroblast activation protein (FAP) on FAP-expressing human WI-38 fibroblasts (human, UniProt Q12884 1-760); test: competitive FACS, WI-38 cells, vs Cy5 tracer m3; C = pIC50 6.1-7.0
# T1 construct: also called human FAP
# [2] = target: Recombinant human FAP (R&D systems, #3715-SE) (human, UniProt Q12884 26-760); test: cell-based or functional assay
Binder,pIC50 Category (FACS) [1],pIC50 Category (Activity) [2]
B1,6.1 pIC50 and 7 pIC50,6.1 pIC50 and 7 pIC50
B2,6.1 pIC50 and 7 pIC50,6.1 pIC50 and 7 pIC50
B3,6.1 pIC50 and 7 pIC50,6.1 pIC50 and 7 pIC50
B4,6.1 pIC50 and 7 pIC50,6.1 pIC50 and 7 pIC50
B5,6.1 pIC50 and 7 pIC50,6.1 pIC50 and 7 pIC50
B6,6.1 pIC50 and 7 pIC50,6.1 pIC50 and 7 pIC50
B7,6.1 pIC50 and 7 pIC50,7.1 pIC50 and 8 pIC50
B8,6.1 pIC50 and 7 pIC50,6.1 pIC50 and 7 pIC50
B9,6.1 pIC50 and 7 pIC50,6.1 pIC50 and 7 pIC50
B10,6.1 pIC50 and 7 pIC50,6.1 pIC50 and 7 pIC50
B11,6.1 pIC50 and 7 pIC50,6.1 pIC50 and 7 pIC50
B12,6.1 pIC50 and 7 pIC50,6.1 pIC50 and 7 pIC50
B13,6.1 pIC50 and 7 pIC50,6.1 pIC50 and 7 pIC50
B14,6.1 pIC50 and 7 pIC50,6.1 pIC50 and 7 pIC50
B15,6.1 pIC50 and 7 pIC50,6.1 pIC50 and 7 pIC50
